The source of these data is patent US20130178605A1 (GLENMARK PHARMACEUTICALS S A, published 2013).

Substitutions are numbered along the chain they refer to. Numbers in names are those of the source.

Assay [1] has as its target T1, alpha 2 subunit of the human VLA-2 receptor (on HT1080 cells) (human, UniProt P17301 30-1181).
T1 construct: whole, on cells; also called hVLA2
The assay is described as follows: flow cytometry on HT1080 cells, detected with mouse anti c-myc tag antibody. For orientation: A flow cytometer gives signals particle by particle.

In assay [2] the target is T2, human CD19 cell-surface protein (on Raji cells) (human, UniProt P15391 20-556).
T2 construct: whole, on cells; also called hCD19
T2 sequence (looked up): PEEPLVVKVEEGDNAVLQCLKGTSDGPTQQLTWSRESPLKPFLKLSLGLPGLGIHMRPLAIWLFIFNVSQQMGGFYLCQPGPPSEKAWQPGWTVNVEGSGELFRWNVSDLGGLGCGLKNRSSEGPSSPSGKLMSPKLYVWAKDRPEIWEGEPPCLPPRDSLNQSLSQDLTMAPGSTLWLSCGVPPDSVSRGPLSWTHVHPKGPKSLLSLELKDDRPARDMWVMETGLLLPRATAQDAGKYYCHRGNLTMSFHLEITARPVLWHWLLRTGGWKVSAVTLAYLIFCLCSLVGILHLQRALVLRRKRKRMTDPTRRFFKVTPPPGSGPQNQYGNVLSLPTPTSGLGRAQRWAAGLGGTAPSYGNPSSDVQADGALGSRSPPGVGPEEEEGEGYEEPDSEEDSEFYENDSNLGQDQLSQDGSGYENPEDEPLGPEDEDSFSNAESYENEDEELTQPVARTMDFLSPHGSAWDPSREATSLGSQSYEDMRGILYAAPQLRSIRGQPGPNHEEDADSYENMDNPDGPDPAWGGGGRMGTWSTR
The assay is described as follows: flow cytometry on Raji cells (CD19+ VLA2-), 10 µg/ml, detected by c-myc tag (FIG. 31A) and by His tag (FIG. 31B).

Assay [3] deals with VL-BT beta F405A chain. The experiment in a line: co-expression in HEK293-EBNA, protein-A purification, non-reducing SDS-PAGE scanning densitometry.
Assay [4] concerns the target T2, human CD19 cell-surface protein (on …). The experiment in a line: flow cytometry on Raji cells, detected with mouse anti His tag antibody.
Assay [5] has as its target T3, VL-Fc (BTB)-Y407S-K409R chain.
T3 construct: Human IGHG1 Fc chain with the named substitutions (EU numbering), fused to a variable light-chain kappa domain antibody
The experiment in a line: co-expression in HEK293-EBNA, protein-A purification, non-reducing SDS-PAGE scanning densitometry, impurities omitted.

Assay [6] deals with T4, VL-Fc (BTB)-F405A-K409R chain.
T4 construct: Human IGHG1 Fc chain with the named substitutions (EU numbering), fused to a variable light-chain kappa domain antibody
Described as above.

In assay [7] the target is T5, VL-Fc (BTB)-F405A-Y407S-K409R-T411R chain.
T5 construct: Human IGHG1 Fc chain with the named substitutions (EU numbering), fused to a variable light-chain kappa domain antibody
The assay is described as above.

The target in assay [8] is T6, VL-Fc (BTB)-F405A-Y407S chain.
T6 construct: Human IGHG1 Fc chain with the named substitutions (EU numbering), fused to a variable light-chain kappa domain antibody
The description is as above.

The target of assay [9] is T7, VL-Fc (BTB)-F405A-Y407S-K409R chain.
T7 construct: Human IGHG1 Fc chain with the named substitutions (EU numbering), fused to a variable light-chain kappa domain antibody
Described as above.

In assay [10] the target is T8, VL-Fc IGHGA chain.
T8 construct: Human IGHG1 Fc chain with CH3 substitutions S364T, K392L, T394W, K409I, T411R (EU numbering), fused to VL
The assay is described as follows: co-expression in HEK293-EBNA, protein-A purification, non-reducing SDS-PAGE scanning densitometry.

The target in assay [11] is VL-BT gamma chain. The assay is described as above.
For assay [12], the target named is T9, VL-Fc (BTB)-K409R-T411R chain.
T9 construct: Human IGHG1 Fc chain with the named substitutions (EU numbering), fused to a variable light-chain kappa domain antibody
The assay is described as follows: co-expression in HEK293-EBNA, protein-A purification, non-reducing SDS-PAGE scanning densitometry, impurities omitted.

B1: anti-hCD19 antibody (antibody, human IgG1, V domains shown)
VH: QVQLVQSGGGVVQPGRSLRLSCAASGVSLPDYGVSWVRQAPGKGLEWVAVIWGSETTYYNSALKSRFTISRDNSKNTLYLQMNSLRAEDTAVYYCAKHYYYGGSYAMDYWGQGTLVTVSS
VL: DIQMTQSPSSLSASVGDRVTITCRASQDISKYLNWYQQKPGKAIKLLIYHTSRLHSGVPSRFSGSGSGTDFTLTISSLQPEDFATYYCQQGATLPYTFGPGTKVDIKR
notes: Control with a single specificity, obtained by co-transfection of chain three with chain four of the bispecific antibody
Turning to B1, in [1], the binding result was “no binding”.

B2: anti-hCD19_anti-hVLA2 bispecific antibody (bispecific antibody, human IgG1, kappa)
heavy 1: QVQLQESGPGLVKPSETLSLTCTVSGFSLTNYGIHWIRQPPGKGLEWLGVIWARGFTNYNSALMSRLTISKDNSKNQVSLKLSSVTAADTAVYYCARANDGVYYAMDYWGQGTLVTVSSASTKGPSVFPLAPSSKSTSGGTAALGCLVKDYFPEPVTVSWNSGALTSGVHTFPAVLQSSGLYSLSSVVTVPSSSLGTQTYICNVNHKPSNTKVDKKVEPKSCDKTHTCPPCPAPELLGGPSVFLFPPKPKDTLMISRTPEVTCVVVDVSHEDPEVKFNWYVDGVEVHNAKTKPREEQYNSTYRVVSVLTVLHQDWLNGKEYKCKVSNKALPAPIEKTISKAKGQPREPQVYTLPPSRDELTKNQVKLVCLVTGFYPSDIAVEWESNGQPENNYYTTPPVLDSDGSFSLVSWLNVDKSRWQQGNVFSCSVMHEALHNHYTQKSLSLSPGKHHHHHH
light 1: DFVMTQSPAFLSVTPGEKVTITCSAQSSVNYIHWYQQKPDQAPKKLIYDTSKLASGVPSRFSGSGSGTDYTFTISSLEAEDAATYYCQQWTTNPLTFGQGTKVEIKRTVAAPSVFIFPPSDEQLKSGTASVVCLLNNFYPREAKVQWKVDNALQSGNSQESVTEQDSKDSTYSLSSTLTLSKADYEKHKVYACEVTHQGLSSPVTKSFNRGEC
heavy 2: QVQLVQSGGGVVQPGRSLRLSCAASGVSLPDYGVSWVRQAPGKGLEWVAVIWGSETTYYNSALKSRFTISRDNSKNTLYLQMNSLRAEDTAVYYCAKHYYYGGSYAMDYWGQGTLVTVSSASTKGPSVFPMAPSSKSTSGGTANLACLVKEYFPEPVTVSWNSGALTSGVFTAPAVLSSSGLYNLVSLVKVPSSSLGTQTYICNVNHKPSNTKVDKKVEPKSCDKTHTCPPCPAPELLGGPSVFLFPPKPKDTLMISRTPEVTCVVVDVSHEDPEVKFNWYVDGVEVHNAKTKPREEQYNSTYRVVSVLTVLHQDWLNGKEYKCKVSNKALPAPIEKTISKAKGQPREPEVATFPPSRDELTKNQVTLVCLVTGFYPSDIAVEWESNGQPENNYKTDPPLLESDGSFALSSRLRVDKSRWQQGNVFSCSVMHEALHNHYTQKSLSLSPGKEQKLISEEDLN
light 2: DIQMTQSPSSLSASVGDRVTITCRASQDISKYLNWYQQKPGKAIKLLIYHTSRLHSGVPSRFSGSGSGTDFTLTISSLQPEDFATYYCQQGATLPYTFGPGTKVDIKRTVAAPKVTIFPPSDEQLKSGTATVLCLLEKFYPREAKVQWKVDNALQSGNSQEGVMEQDSKDSTYMLFSWLTLSKADYEKHKVYACEVTHQGLSSPVTKSFNRGEC
notes: Four distinct chains; also called anti-hCD19_anti-VLA2 bispecific antibody
Consider B2, for which the binding result in assay [2] was “binds”.

B3: BT alpha IGHG3 chain (other)
chain: DKTHTCPPCPAPELLGGPSVFLFPPKPKDTLMISRTPEVTCVVVDVSHEDPEVKFNWYVDGVEVHNAKTKPREEQYNSTYRVVSVLTVLHQDWLNGKEYKCKVSNKALPAPIEKTISKAKGQPREPQVYTLPPSREEMTKNQVKLVCLVTGFYPSDIAVEWESSGQPENNYYTTPPMLDSDGSFSLVSWLNVDKSRWQQGNIFSCSVMHEALHNRFTQKSLSLSPGK
B3: the “hetero-dimer percent of the protein-A purified material” value (“hetero-dimer percent” below) in assay [3] was not below 91%.

B4: anti-hVLA2 antibody (antibody, human IgG1, kappa, V domains shown)
VH: QVQLQESGPGLVKPSETLSLTCTVSGFSLTNYGIHWIRQPPGKGLEWLGVIWARGFTNYNSALMSRLTISKDNSKNQVSLKLSSVTAADTAVYYCARANDGVYYAMDYWGQGTLVTVSS
VL: DFVMTQSPAFLSVTPGEKVTITCSAQSSVNYIHWYQQKPDQAPKKLIYDTSKLASGVPSRFSGSGSGTDYTFTISSLEAEDAATYYCQQWTTNPLTFGQGTKVEIKR
notes: Control with a single specificity, obtained by co-transfection of chain one with chain two of the bispecific antibody
As to B4, in [4], the binding result is on record as “no binding”.

B5: Fc (BTA)-F405S-Y407V-K409W-T411N chain (other)
chain: DKTHTCPPCPAPELLGGPSVFLFPPKPKDTLMISRTPEVTCVVVDVSHEDPEVKFNWYVDGVEVHNAKTKPREEQYNSTYRVVSVLTVLHQDWLNGKEYKCKVSNKALPAPIEKTISKAKGQPREPQVYTLPPSRDELTKNQVSLTCLVKGFYPSDIAVEWESNGQPENNYKTTPPVLDSDGSFSLVSWLNVDKSRWQQGNVFSCSVMHEALHNHYTQKSLSLSPGK
notes: Human IGHG1 Fc chain with the named substitutions (EU numbering)
On to B5, for which the hetero-dimer formation percentage turned out to be 5% in assay [5]; 4% in assay [6]; 9% in [7]; 7% in assay [8]; 15% in assay [9].

B6: Fc IGHAG chain (other)
chain: B5 chain with Q127E, Y129H, K150R, V177R, D179E, S185A, V187T, W189K, N191T
notes: Human IGHG1 Fc chain with CH3 substitutions Q347E, Y349H, K370R, V397R, D399E, F405A, Y407T (EU numbering)
B6: in assay [10], the “hetero-dimer percent” value is not below 54%.

B7: BT delta chain (other)
chain: B5 chain with L131M, S144N, T146A, G151E, K172F, T174A, D179S, S185N, W189L, N191K
As for B7, in assay [11], the “hetero-dimer percent” value was not below 52.1%.

B8: Fc (BTA)-Y407V-K409W-T411N chain (other)
chain: B5 chain with S185F
notes: as for B5
B8: the hetero-dimer formation percentage in assay [5] stood at 25%; in assay [6], 25%; in [7], 53%; in [8], 50%; in [9] it was 52%.

B9: Fc (BTA)-S364K-T366V-K370T-K392Y-K409W-T411N chain (other)
chain: B5 chain with S144K, T146V, K150T, K172Y, S185F, V187Y
notes: as for B5
Turning to B9, the hetero-dimer formation percentage is 74% in assay [5]; 32% in assay [12]; 60% in assay [6]; 88% in [7]; 90% in assay [8]; 72% in [9].
